Target: Biotinylated SARS-CoV-2 (COVID-19) S protein RBD, His, Avitag (bRBD) (SARS-CoV-2, UniProt P0DTC2, biotinylated)
Experiment: flow cytometry on cells

B1: C119 (IgG) (antibody, V domains shown)
VH: QVQLVQSGAEVKKPGASVKVSCKASGYTFTSYYMHWVRQAPGQGLEWMGIINPSGGSTSYAQKLQGRVTMTRDTSTSTVYMELSSLRSEDTAVYYCARANHETTMDTYYYYYYMDVWGKGTTVTVSS
VL: QSALTQPASVSGSPGQSITISCTGTSSDVGGYKYVSWYQRHPGKAPKLMIYDVSNRPSGVSNRFSGSKSGNTASLTISGLQAEDEADYYCSSYTSSSTSVVFGGGTQLTVL
  binding result: binds

— paper PMC8223476 (2021)
